The results in this text go back to PMC9844003.

Experiment [1] has as its target extracellular domain of CD47 fused to a His(×6)-Avi-tag (human). Kind of experiment: ELISA; pH 7.0. On the technique in general: ELISA stands for enzyme-linked immunosorbent assay.
Experiment [2] shares this target. Kind of experiment: ELISA; pH 6.4.
Experiment [3] has the same target. Nature of the experiment: ELISA; pH 7.4.
For experiment [4] the target is unchanged. Nature of the experiment: ELISA; pH 7.2.
Experiment [5] has the same target. Kind of experiment: ELISA; pH 7.6.
Experiment [6] shares this target. Kind of experiment: ELISA; pH 6.8.
The target is the same in experiment [7]. Kind of experiment: ELISA; pH 6.6.
Experiment [8] shares this target. Kind of experiment: ELISA; pH 6.2.

Sequence of extracellular domain of CD47 fused to a His(×6)-Avi-tag (human) (Q08722 19-141): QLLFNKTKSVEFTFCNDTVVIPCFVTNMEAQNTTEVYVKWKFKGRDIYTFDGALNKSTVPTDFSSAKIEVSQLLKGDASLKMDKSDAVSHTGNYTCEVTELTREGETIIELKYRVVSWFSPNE

As a reminder, the EC50 is the concentration giving half of the maximal effect. A lower EC50 goes with higher potency in that assay. With Hu5F9, the EC50 in experiment [1] was determined as 0.04 nM; in experiment [2], 0.04 nM; in experiment [3], 0.04 nM; in experiment [4], 0.03 nM; in experiment [5], 0.04 nM; in experiment [6] it was 0.03 nM. Also, the EC50 in experiment [7] and in experiment [8] was 0.04 nM each time.
